Consider 38 sequences from the supplement of paper PMC9170038.

Common to all, as to conditions: FMN input: 0 or 200 uM; Eterna round: R93 (includes R88 designs)
The subject of series [1] is MS2 coat protein. The series is described as follows: apparent KD of MS2 coat protein, switch OFF state (with FMN for OFF switches, without FMN for ON switches); designed switch direction (-1 OFF switch, 1 ON switch): 1; higher = weaker reporter binding. In short, it runs like this:
(§1)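 Illumina sequencing clusters were used for on-chip transcription of designed RNA switches. Titration with SNAP-549-labelled MS2 coat protein followed, in twofold steps from 0.7 or 1.5 nM to 3 µM in 100 mM Tris-HCl pH 7.5, 80 mM KCl, 4 mM MgCl2, without or with constant ligand. Apparent KD is each design's median of fits to normalised cluster binding curves.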

Series [2] deals with MS2 coat protein. The series is described as follows: apparent KD of MS2 coat protein, switch ON state; designed switch direction (-1 OFF switch, 1 ON switch): 1; higher = weaker reporter binding. In short, it runs like this:
as §1

Series [3] concerns MS2 coat protein. The series is described as follows: apparent KD of MS2 coat protein, switch OFF state (with FMN for OFF switches, without FMN for ON switches); designed switch direction (-1 OFF switch, 1 ON switch): -1; higher = weaker reporter binding. In short, it runs like this:
as §1

The subject of series [4] is MS2 coat protein. In words: apparent KD of MS2 coat protein, switch ON state; designed switch direction (-1 OFF switch, 1 ON switch): -1; higher = weaker reporter binding. In short, it runs like this: as §1

“AAAAAAAAAAAUAAGGAUAUGUGAUCGGUGACAUGAGGAUCACCCAUGUAAGGCCUCCGGGACGGGCAGAAGGUAUAAAAAAAAA [Same State2-III]”: the results for the “apparent KD of MS2 coat protein” value in the series on MS2 coat protein [1] and in the series on MS2 coat protein [2] were 607 nM and 491 nM, respectively.
“AAAAAAAAAAGUCAGGAUAUACAAAUUUUUACAUGAGGAUCACCCAUGUUAAAGAAAAAAAAAAAGUAGAAGGGACAAAAAAAAAA [Same State 2 - Omei 2]”: the “apparent KD of MS2 coat protein” value came out at 15.4 nM in the series on MS2 coat protein [1] and 11.1 nM with MS2 coat protein [2].
For “AAAAAAAAAGUGCAGGAUAUCCUCAUGGCUACAUGAGGAUCACCCAUGUGAAGAAAAGCACAUGAGGAGAAGGGCACAAAAAAAAA [Balance beam]”, in that order: 23.1 nM and 12.3 nM.
The corresponding values for “AAAAAAAAAUCUCAGGAUAUAGAUUAUAGAACAUGAGGAUCACCCAUGUAGUGAAAGAAGAAAAACUAGAAGGGAGGAAAAAAAAA [Same State 2 #2]” are 70.8 nM and 48.2 nM.
The corresponding values for “AAAAAAAAUGUGUAGGAUAUCAGUAAAAAUACAUGAGGAUCACCCAUGUUCAAAAAAAAAAAAACUGAGAAGGACACGGAUGGUCC [Design 1]” are 42.6 nM and 35.5 nM.
As for “AAAAAACAUGAGGAUCACCCAUGUAAAAAAAUCGCAGGAUAUAAGGUCGCGAAAGCGACCUUAGAAGGGCGAUCCU [Louisiana 1 - Jieux - Same State 1]”, the “apparent KD of MS2 coat protein” value in the series on MS2 coat protein [1] came out at 75.8 nM; in the series with MS2 coat protein [2] it was 46.3 nM.
With “AAAAAACAUGAGGAUCACCCAUGUAAAAAAAUGGGAGGAUAUACAAAAAAAAAAAAAAAAGUAGAAGGCCUGAAAA [same state 10]”, the “apparent KD of MS2 coat protein” value worked out at 533 nM with MS2 coat protein [1] and 62.3 nM with MS2 coat protein [2].
For “AAAAAACAUGAGGAUCACCCAUGUAAAAAAAUGGGAGGAUAUACAAAAACGAAAGUCAAAGUAGAAGGCCUGAAAA [same state 5]”, in that order: 172 nM and 19.3 nM.
Take “AAAAAACAUGAGGAUCACCCAUGUAAAAUUAUGGGAGGAUAUGGAAACACGAAAGUGAAACCAGAAGGCCUAAAAG [77%, Mat - Mod of Eli, 11]”: the figures for the “apparent KD of MS2 coat protein” value in the series with MS2 coat protein [1] and with MS2 coat protein [2] were 49.7 nM and 25.1 nM, respectively.
For “AAAAAACAUGAGGAUCACCCAUGUAGAAACAUGGGAGGAUAUACGAAGACGAAAGUCAAAGUAGAAGGCCUAAGAA [Garnet 88]”, in that order: 224 nM and 182 nM.
Take “CUCUAGUAAGGAUAUCGAAGAAAAGAAAAGAAAGAAAAGAACGAGAAGGUACAUGAGGAUCACCCAUGUAAGAA [EteRNA is fun!]”: the “apparent KD of MS2 coat protein” value in the series on MS2 coat protein [3] amounted to 19 nM; in the series on MS2 coat protein [4], 34.5 nM.
In the case of “CUCUAGUUAGGAUAUCGAAGAAAAGAAAAGAAAGAAAAGAACGAGAAGGAACAUGAGGAUCACCCAUGUAAGAA [EteRNA is fun!]”, the “apparent KD of MS2 coat protein” value came to 28 nM with MS2 coat protein [3] and 29.1 nM with MS2 coat protein [4].
The corresponding values for “GAAAAGUGAGGAUAUUCGGAAGGGAAAGCGCAAACCCAACCGAAGAAGGCACAUGAGGAUCACCCAUGUGGAAG [Mat - Exaclusion 4 - Eli mod - D58]” are 28.7 nM and 23.6 nM.
For “GAAACACAUGAGGAUCACCCAUGUCAGGAUAUUCAAACAAAAACAAAACAAAACAAACGAAGAAGGGACAAAAG [Mat - Same state - Mayanna Mod - D102]”, in that order: 32.6 nM and 27 nM.
In the case of “GAAGAACAUGAGGAUCACCCAUGUGAGGAUAUACAGAAGGGAAUAAAAUAACCUGAAAGUAGAAGGCACAAGAA [Ex 1 May 41]”, the “apparent KD of MS2 coat protein” value with MS2 coat protein [3] was 65.8 nM; in the series with MS2 coat protein [4], 45.7 nM.
Regarding “GAAUGAUGAGGAUAUACAUGAGGAUCACCCAUGUGUAAAAAUAAAUACACAAAAGAAAGUAGAAGGCAUCAAAG [Mat - Exclusion 3 - Mayanna mod - D120]”, the “apparent KD of MS2 coat protein” value in the series on MS2 coat protein [3] was determined as 99 nM; in the series on MS2 coat protein [4], 22.9 nM.
The corresponding values for “GAGAGGGCAGGAUAUGCGGAGAGAGAGAGAGAGAGAGAGAGACAUGAGGAUCACCCAUGUAGAAGGGCCGAGAG [salish99-ex2-09]” are 28.1 nM and 62.3 nM.
For the sequence “GAUCCACAUGAGGAUCACCCAUGUAAGGAUAUUUAAAACCGGAGGAAACCCUCCGAAGAAAGAAGGUACAAAAC [Atceabi]”, the “apparent KD of MS2 coat protein” value worked out at 14.5 nM in the series with MS2 coat protein [3] and 14.6 nM in the series with MS2 coat protein [4].
The corresponding values for “GCUGUCGUAGGAUAUACAUGAGGAUCACCCAUGUGAGAGAAAAAAGUGAGAAAGAAAAGUAGAAGGACGGUAGG [salish99-ex3-105]” are 43.1 nM and 37.5 nM.
For “GGAAAACAUGAGGAUCACCCAUGUAAGGAUAUGCAAAAAAAAGGAUAUAGAAGGAAAAGCAGAAGGUACAAAGG [salish99-ex1-26]”, in that order: 38.2 nM and 30.8 nM.
“GGAAAACAUGAGGAUCACCCAUGUAAGGAUAUGCUAAAAAAAAAAAAAAAAAAAAAAUGCAGAAGGUACUAAAG [Amethyst 18]”: the “apparent KD of MS2 coat protein” value in the series with MS2 coat protein [3] turned out to be 118 nM; in the series with MS2 coat protein [4], 34 nM.
On to “GGAAAACAUGAGGAUCACCCAUGUCAGGAUAUACAAAGAAAGAAAGAAAAGAAAGAAAGUAGAAGGGACAAAAG [Amethyst 15]”, for which the results for the “apparent KD of MS2 coat protein” value with MS2 coat protein [3] and in the series with MS2 coat protein [4] were 31.9 nM and 27.1 nM, respectively.
The corresponding values for “GGAAAACAUGAGGAUCACCCAUGUGAGGAUAUCGAUGUCCAAAAGAAAGUGCGGGACUCGAGAAGGCACUUGGA [salish99-ex1-36]” are 45.8 nM and 56.3 nM.
For “GGGUCACAUGAGGAUCACCCAUGUAAGGAUAUGCUAGGGAUGGAAACCAUUCCGCAACGCAGAAGGUACUAAAG [Janelle Amethyst 18 Mod 12 - Jieux - Exclusion 1]”, the “apparent KD of MS2 coat protein” value in the series on MS2 coat protein [3] was 105 nM; in the series with MS2 coat protein [4], 50.4 nM.
For “GGGUCACAUGAGGAUCACCCAUGUAAGGAUAUGCUAGGGAUGGAAGCCAGGCCGCAACGCAGAAGGUACUAAAG [Janelle Amethyst 18 Mod 14 - Jieux - Exclusion 1]”, the figures for the “apparent KD of MS2 coat protein” value with MS2 coat protein [3] and in the series with MS2 coat protein [4] were 54.7 nM and 55.1 nM, respectively.
For “GGUUGGCGAGGAUAUACAUGAGGAUCACCCAUGUGAGAGAAAAAAGUAAGAAAGAAAAGUAGAAGGCGCUGACG [salish99-ex3-51]”, in that order: 87.8 nM and 30.7 nM.
With “GGUUGGCGAGGAUAUACAUGAGGAUCACCCAUGUGAGAGAAAAAAGUGAGAAUGAAAAGUAGAAGGCGCUGACG [salish99-ex3-35]”, the “apparent KD of MS2 coat protein” value in the series on MS2 coat protein [3] worked out at 215 nM; with MS2 coat protein [4], 46.2 nM.
For “GUCGUGUGAGGAUAUGGAAAGUAGAAGUGGCGGUCGAAAACCUAGAAGGCACAUGAGGAUCACCCAUGUAAGAG [JR_Exc004_Sub1708]”, the “apparent KD of MS2 coat protein” value with MS2 coat protein [3] is 54.3 nM; in the series with MS2 coat protein [4], 57 nM.
As for “GUGUACAGAGGAUAUACAUGAGCAUGGAAUCAUGCAGGAUCACAUGAGGAUCACCCAUGUAGAAGGCUGUACAC [LROPPY Exclusion 2 - v06_mod Brourd]”, the entries for the “apparent KD of MS2 coat protein” value in the series with MS2 coat protein [3] and in the series with MS2 coat protein [4] were 39.8 nM and 66.9 nM, respectively.
The corresponding values for “GUGUACAGAGGAUAUACAUGAGCUAGGAAACUAGCAGGAUCACAUGAGGAUCACCCAUGUAGAAGGCUGUACAC [Ex2: 731]” are 15.5 nM and 42.5 nM.
For “GUGUACAGAGGAUAUACUGGAGCAUGGAAACAUGCAAGAUCACAUGAGGAUCACCCAUGUAGAAGGCUGUACAC [Ex2: 742]”, in that order: 21.8 nM and 119 nM.
Regarding “GUGUACAGAGGAUAUAUAUGAGCAUGGAAACAUGCAUCCUCACAUGAGGAUCACCCAUGUAGAAGGCUGUACAC [Ex2: 704]”, the results for the “apparent KD of MS2 coat protein” value in the series with MS2 coat protein [3] and in the series on MS2 coat protein [4] were 41.3 nM and 624 nM, respectively.
The corresponding values for “UAAAAGGUAGGAUAUACUUGGAAGACCUGCCAACAAUAACAACAUGAGGAUCACCCAUGUAGAAGGACCAAUAU [Edtiatlema]” are 19.5 nM and 23.2 nM.
“UACGUAUGAGGAUAUACAAACAGAAAAAUCAGACAUAACUGACAUGAGGAUCACCCAUGUAGAAGGCAUAUACA [JR_Exc002_Sub904]”: the “apparent KD of MS2 coat protein” value in the series on MS2 coat protein [3] worked out at 17.4 nM; with MS2 coat protein [4], 25.3 nM.
In the case of “UAGAAGGUAGGAUAUACUUGGGAAACUAAUGCAAAGAUAUAACAUGAGGAUCACCCAUGUAGAAGGGCCAGUAA [JR_Exc002_Sub018]”, the “apparent KD of MS2 coat protein” value came to 97.9 nM in the series on MS2 coat protein [3] and 114 nM in the series with MS2 coat protein [4].
Regarding “UCACACCUAGGAUAUACAUGAGGAUCACCCAUGUGGCACUCCGCAGGCAGUGUUCCCAGUAGAAGGAGGACACG [Ricere]”, the “apparent KD of MS2 coat protein” value is 22.4 nM with MS2 coat protein [3] and 27.8 nM with MS2 coat protein [4].
“UCCGAACAUGAGGAUCACCCAUGUCAGGAUAUACACCCAGCAUGGAAGCCAUGCUCAAGUAGAAGGGACGGGUG [Inxeus]”: the “apparent KD of MS2 coat protein” value with MS2 coat protein [3] and in the series with MS2 coat protein [4] was 34.9 nM throughout.
Turning to “UCCUGACAUGAGGAUCACCCAUGUCAGGAUAUCUACAGAACCUCAUGUAAAAAACUGUAGAGAAGGGAUAUGGG [Design 98: Pseudoknot H]”, the “apparent KD of MS2 coat protein” value was determined as 17.5 nM in the series with MS2 coat protein [3] and 16.9 nM in the series with MS2 coat protein [4].
